# Values of other authors as cited in publication PMC8465902.
# How the values were obtained:
# [1] = molecular target: IscU (Escherichia coli) (UniProt P0ACD4)
# [2] = molecular target: ISCU (Homo sapiens) (UniProt Q9H1K1)
# Sequence of UniProt Q9H1K1 (Q9H1K1 35-167): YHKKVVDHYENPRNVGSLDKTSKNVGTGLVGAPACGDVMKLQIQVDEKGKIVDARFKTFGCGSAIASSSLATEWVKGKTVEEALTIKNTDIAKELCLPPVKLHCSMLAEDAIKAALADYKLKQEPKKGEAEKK
# Sequence of UniProt P0ACD4 (P0ACD4 whole entry): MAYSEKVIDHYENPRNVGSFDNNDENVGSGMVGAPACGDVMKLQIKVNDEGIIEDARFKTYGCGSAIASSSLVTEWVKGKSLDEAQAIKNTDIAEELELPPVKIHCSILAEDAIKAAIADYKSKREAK
Kd [2] [µM],Substance,Kd [1] [µM]
,IscS (from UniProt P0A6B7),2
1.1,NFU1 CTD (from UniProt Q9UMS0),
